Reference: the supplement of paper PMC9732359
± gives the uncertainty stated by the source.

Experiment: protein stability index of a GFP-peptide fusion (yeast GPS) (PSI 1-4); higher = more stable; sorted into four equal gates, so the index is relative within each strain
Method in brief: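 For each peptide, the protein stability index sums the read frequency in every gate after multiplying it by the gate number. Read frequencies came from plasmids that were PCR-amplified from each gate and Illumina-sequenced, with reads assigned to strains by barcodes. The gates were four equal bins of GFP/Cherry fluorescence ratio applied to mid-log yeast in leucine-free medium carrying a pooled library of tiled 17-residue yeast protein peptides fused downstream of GFP on a Cherry-expressing plasmid.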

Sequence | protein stability index (doa10∆) | protein stability index (pdr5∆) | protein stability index (san1∆) | protein stability index (ubr1∆)
EEREAAASKVKLEEESK [RPC53] | 3.29 ± 0.081 | 3.43 ± 0.095 | 3.37 ± 0.069 | 3.25 ± 0.063
EESINEFKSIEIEMKNK [SMC4] | 3.32 ± 0.21 | 3.56 ± 0.17 | 3.31 ± 0.25 | 2.86 ± 0.097
EESWEKVVEFAITHMID [SCL1] | 2.62 ± 0.087 | 2.92 ± 0.098 | 3.06 ± 0.083 | 2.91 ± 0.07
EEVNRCYLRWQHLRNEH [SNF2] | 3.27 ± 0.07 | 3 ± 0.075 | 3.23 ± 0.071 | 3.05 ± 0.075
EEYDDDDDNSNVDYYNV [SNF2] | 2.89 ± 0.067 | 2.93 ± 0.063 | 2.93 ± 0.042 | 3.06 ± 0.067
EFDEQYGTRPLVLPPVV [SNF2] | 3.08 ± 0.071 | 2.69 ± 0.063 | 2.86 ± 0.061 | 2.53 ± 0.046
EFFHLQHYLDTATAPRL [QCR6] | 2.98 ± 0.057 | 3.03 ± 0.043 | 2.72 ± 0.058 | 3 ± 0.069
EFKSIEIEMKNKLEKLN [SMC4] | 1.68 ± 0.058 | 1.51 ± 0.075 | 1.42 ± 0.19 | 1.37 ± 0.046
EFLEDTSRTIVRNVKGP [RPS28A] |  |  | 3.15 ± 0.29 | 3.03 ± 0.16
EFLKWTPNVNVLVLHGD [ISW2] | 1.69 ± 0.064 | 1.69 ± 0.06 | 1.53 ± 0.12 | 1.84 ± 0.082
EFLPLSLHILMIFWNDI [SRB8] | 1.36 ± 0.037 | 1.34 ± 0.04 | 1.35 ± 0.062 | 1.89 ± 0.036
EFTENELNVDSMDVDDK [ITC1] | 3.18 ± 0.16 | 3.24 ± 0.19 | 3.31 ± 0.11 | 3.25 ± 0.093
EFTKINTPLVGAAFKVI [YJL039C/NUP192] | 1.63 ± 0.039 | 1.91 ± 0.044 | 1.6 ± 0.084 | 1.69 ± 0.037
EFVHKYLGEGPRMVRDV [RPT3] | 3.39 ± 0.14 | 3.43 ± 0.084 | 3.14 ± 0.062 | 3.17 ± 0.077
EGDFLKSIIGKLTAERA [POP1] | 1.63 ± 0.14 | 3.23 ± 0.082 | 2.1 ± 0.11 | 3.03 ± 0.12
EGHDWKAPTKLDDPEAV [DIS3] | 3.31 ± 0.057 | 3.28 ± 0.054 | 3.23 ± 0.041 | 3.25 ± 0.046
EGIKETQAKRIFLQQFL [SWI1] | 2.37 ± 0.12 | 2.75 ± 0.14 | 2.74 ± 0.086 | 2.26 ± 0.066
EGLNQRNQVQTENVAQA [YGR119C/NUP57] | 2.96 ± 0.12 | 2.89 ± 0.16 | 2.77 ± 0.095 | 2.65 ± 0.06
EGNEKLAAVPAAGPASA [RPP2A] | 2.06 ± 0.061 | 2.23 ± 0.063 | 2.17 ± 0.09 | 2.79 ± 0.063
EGSTIRYLAVTLQDIGF [YMR129W/POM152] | 2.5 ± 0.048 | 2.58 ± 0.04 | 2.52 ± 0.052 | 2.71 ± 0.041
EHEEKEKERETNKKGIK [RPN2] | 3.32 ± 0.24 | 3.36 ± 0.1 | 3.33 ± 0.16 | 3.4 ± 0.25
EIDDFNDIDDLDMELAE [SEC65] | 2.68 ± 0.1 | 3.11 ± 0.11 | 2.89 ± 0.089 | 3.22 ± 0.12
EIDPLTGMPISNDPDVN [BRN1] |  |  | 2.87 ± 0.13 | 3.03 ± 0.085
EIDTILSTLRMEADPSL [RPN9] | 3.04 ± 0.24 | 3.04 ± 0.21 | 2.56 ± 0.13 | 2.67 ± 0.087
EIFIRCNNVLYIRELPN [SMX3] |  | 1.75 ± 0.18 | 1.53 ± 0.12 | 1.48 ± 0.12
EIGGSDLKESMVKGLLK [ECM29] | 2.63 ± 0.23 | 3.53 ± 0.16 |  | 2.76 ± 0.21
EILEKCAEGIFVVKLDT [GAL11] |  |  |  | 3.72 ± 0.28

Sequence | protein stability index (doa10∆) | protein stability index (pdr5∆) | protein stability index (san1∆) | protein stability index (ubr1∆)
EILVTELTAQGYDPALL [RPN2] | 2.8 ± 0.27 | 3.36 ± 0.15 |  | 3.28 ± 0.1
EINSEDYDNKTKLIGVL [SRP68] | 3.2 ± 0.15 | 3.04 ± 0.18 | 3.25 ± 0.076 | 3.02 ± 0.12
EINSEMCHIVRKFHELN [GRR1] | 2.4 ± 0.057 | 2.81 ± 0.063 | 2.85 ± 0.064 | 2.44 ± 0.05
EINYAFSMDEEFKNMDC [SIR3] | 3.09 ± 0.068 | 3.14 ± 0.053 | 3.22 ± 0.04 | 3.25 ± 0.048
EITDASLNLQYVNYEIS [YML103C/NUP188] | 2.62 ± 0.05 | 2.96 ± 0.067 | 2.31 ± 0.072 | 2.79 ± 0.049
EIYKQLNDRQEEISRLQ [YIL149C/MLP2] | 3.42 ± 0.08 | 3.57 ± 0.078 | 3.6 ± 0.041 | 3.38 ± 0.07
EIYRISFQLSKIRRAAR [RPS9A] | 1.95 ± 0.043 | 2.15 ± 0.062 | 2.3 ± 0.048 | 2.29 ± 0.046
EKADYEDEMMHEEDQKT [RPN12] |  | 2.97 ± 0.15 |  | 3.03 ± 0.17
EKDASGKPSFVFGASDK [YOR098C/NUP1] | 2.63 ± 0.067 | 2.52 ± 0.065 | 2.98 ± 0.076 | 2.37 ± 0.074
EKDAVSVFGFRTQFGGG [RPS24A] | 1.92 ± 0.068 | 2.09 ± 0.094 | 2 ± 0.14 | 1.93 ± 0.064
EKFSPKSFISKLLGIGD [SRP54] | 3.49 ± 0.14 | 3.31 ± 0.15 | 2.68 ± 0.2 | 3.21 ± 0.17
EKGENPSCVYNLIGVIT [UBP6] | 2.64 ± 0.072 | 2.79 ± 0.093 | 3.07 ± 0.081 | 3.06 ± 0.1
EKGSWEQLSPQDVLQML [BRR2] | 3.05 ± 0.12 | 3.27 ± 0.15 | 3.42 ± 0.12 | 3.03 ± 0.088
EKIRPLRSRSFKSTESN [YMR129W/POM152] |  |  | 2.87 ± 0.28 | 
EKKDSGSSKPAFSFGAK [YJL041W/NSP1] | 3.32 ± 0.1 | 3.26 ± 0.098 | 3.08 ± 0.073 | 3.35 ± 0.051
EKLLKELENNEFTENEL [ITC1] | 3.43 ± 0.074 | 3.21 ± 0.078 | 3.33 ± 0.069 | 3.33 ± 0.097
EKPDNSNHNNLNLNNSE [SNF2] | 3.02 ± 0.043 | 3.19 ± 0.051 | 3.15 ± 0.036 | 3.17 ± 0.034
EKRIQYAKDILQKEFLP [RPB2] | 2.06 ± 0.055 | 1.85 ± 0.052 | 2.06 ± 0.091 | 2.08 ± 0.09
EKRYDDKLLDFIRYDVK [CSN12] | 3.3 ± 0.063 | 3.25 ± 0.066 | 3.22 ± 0.046 | 3.17 ± 0.066
EKTLGKSLSKAISTGAK [RPN7] | 2.98 ± 0.19 | 3.42 ± 0.12 | 3.53 ± 0.12 | 3.57 ± 0.19
EKTMMTFGKPEEEDSIL [YCS4] | 3.27 ± 0.15 | 3.37 ± 0.14 | 3.35 ± 0.063 | 3.27 ± 0.088
ELDKREDMIDQVSKKLS [SMC3] | 3.12 ± 0.061 | 3 ± 0.082 | 2.93 ± 0.075 | 2.81 ± 0.096
ELDPECQLQNSDNSEEE [RRP43] | 3.14 ± 0.075 | 2.95 ± 0.066 | 2.94 ± 0.054 | 3 ± 0.063
ELDRAAMNDKDLTMGQV [RPO21] | 3.29 ± 0.17 | 3.31 ± 0.14 | 2.8 ± 0.13 | 3.12 ± 0.097
ELEDVAVKKLYAIIINY [YCS4] | 1.84 ± 0.057 | 1.97 ± 0.065 | 1.59 ± 0.12 | 1.44 ± 0.031
ELENNEFTENELNVDSM [ITC1] | 3.38 ± 0.07 | 3.21 ± 0.073 | 3.33 ± 0.065 | 3.27 ± 0.069
ELENSSPELKAELRPLQ [RPS7A] | 3.04 ± 0.24 | 3.53 ± 0.11 | 2.97 ± 0.15 | 3.64 ± 0.15
